Where a chain is given by its changes, count along the chain named.
B1: CD3ε(1-27)-aCD3-aHER2-Xbody (bispecific antibody)
chain 1: not shown
chain 2: QDGNEEMGGITQTPYKVSISGTTVILTGGGGSGGGGSGGGGSEVQLVESGGGLVQPGGSLKLSCAASGFTFNSYAMNWVRQAPGKGLEWVARIRSKYNNYATYYADSVKGRFTISRDDSKNTAYLQMNNLKTEDTAVYYCVRHGNFGNSYVSWWAYWGQGTLVTVSSGGGGSGGGGSELVMTQTPSSLSASLGDRVTISCRASQDISNYLNWYQQKPDGTVKLLIYYTSRLHSGVPSRFSGSGSGTDYSLTISNLEQEDIATYFCQQGNTLPLTFGAGTKLEIKASTKGPSVFPLAPCSRSTSESTAALGCLVKDYFPEPVTVSWNSGALTSGVHTFPAVLQSSGLYSLSSVVTVPSSNFGTQTYTCNVDHKPSNTKVDKTVGGGGSAAAEPKSSDKTHTCPPCPAPEAAGGPSVFLFPPKPKDTLMISRTPEVTCVVVDVSHEDPEVKFNWYVDGVEVHNAKTKPREEQYNSTYRVVSVLTVLHQDWLNGKEYKCKVSNKALPAPIEKTISKAKGQPREPQVYTLPPSREEMTKNQVSLTCLVKGFYPSDIAVEWESNGQPENNYDTTPPVLDSDGSFFLYSDLTVDKSRWQQGNVFSCSVMHEALHNHYTQKSLSLSPGK
B2: CD3ε(1-27)-MMP-2csV3-aCD3-aHER2-Xbody, digested with MMP-2 (bispecific antibody)
chain 1: not shown
chain 2: LAGEVQLVESGGGLVQPGGSLKLSCAASGFTFNSYAMNWVRQAPGKGLEWVARIRSKYNNYATYYADSVKGRFTISRDDSKNTAYLQMNNLKTEDTAVYYCVRHGNFGNSYVSWWAYWGQGTLVTVSSGGGGSGGGGSELVMTQTPSSLSASLGDRVTISCRASQDISNYLNWYQQKPDGTVKLLIYYTSRLHSGVPSRFSGSGSGTDYSLTISNLEQEDIATYFCQQGNTLPLTFGAGTKLEIKASTKGPSVFPLAPCSRSTSESTAALGCLVKDYFPEPVTVSWNSGALTSGVHTFPAVLQSSGLYSLSSVVTVPSSNFGTQTYTCNVDHKPSNTKVDKTVGGGGSAAAEPKSSDKTHTCPPCPAPEAAGGPSVFLFPPKPKDTLMISRTPEVTCVVVDVSHEDPEVKFNWYVDGVEVHNAKTKPREEQYNSTYRVVSVLTVLHQDWLNGKEYKCKVSNKALPAPIEKTISKAKGQPREPQVYTLPPSREEMTKNQVSLTCLVKGFYPSDIAVEWESNGQPENNYDTTPPVLDSDGSFFLYSDLTVDKSRWQQGNVFSCSVMHEALHNHYTQKSLSLSPGK
B3: aCD3-aHER2-Xbody (bispecific antibody)
chain 1: not shown
chain 2: EVQLVESGGGLVQPGGSLKLSCAASGFTFNSYAMNWVRQAPGKGLEWVARIRSKYNNYATYYADSVKGRFTISRDDSKNTAYLQMNNLKTEDTAVYYCVRHGNFGNSYVSWWAYWGQGTLVTVSSGGGGSGGGGSELVMTQTPSSLSASLGDRVTISCRASQDISNYLNWYQQKPDGTVKLLIYYTSRLHSGVPSRFSGSGSGTDYSLTISNLEQEDIATYFCQQGNTLPLTFGAGTKLEIKASTKGPSVFPLAPCSRSTSESTAALGCLVKDYFPEPVTVSWNSGALTSGVHTFPAVLQSSGLYSLSSVVTVPSSNFGTQTYTCNVDHKPSNTKVDKTVGGGGSAAAEPKSSDKTHTCPPCPAPEAAGGPSVFLFPPKPKDTLMISRTPEVTCVVVDVSHEDPEVKFNWYVDGVEVHNAKTKPREEQYNSTYRVVSVLTVLHQDWLNGKEYKCKVSNKALPAPIEKTISKAKGQPREPQVYTLPPSREEMTKNQVSLTCLVKGFYPSDIAVEWESNGQPENNYDTTPPVLDSDGSFFLYSDLTVDKSRWQQGNVFSCSVMHEALHNHYTQKSLSLSPGK
B4: CD3ε(1-27)-MMP-2csV2-aCD3-aHER2-Xbody, digested with MMP-2 (bispecific antibody)
chain 1: not shown
chain 2: MLSQSEVQLVESGGGLVQPGGSLKLSCAASGFTFNSYAMNWVRQAPGKGLEWVARIRSKYNNYATYYADSVKGRFTISRDDSKNTAYLQMNNLKTEDTAVYYCVRHGNFGNSYVSWWAYWGQGTLVTVSSGGGGSGGGGSELVMTQTPSSLSASLGDRVTISCRASQDISNYLNWYQQKPDGTVKLLIYYTSRLHSGVPSRFSGSGSGTDYSLTISNLEQEDIATYFCQQGNTLPLTFGAGTKLEIKASTKGPSVFPLAPCSRSTSESTAALGCLVKDYFPEPVTVSWNSGALTSGVHTFPAVLQSSGLYSLSSVVTVPSSNFGTQTYTCNVDHKPSNTKVDKTVGGGGSAAAEPKSSDKTHTCPPCPAPEAAGGPSVFLFPPKPKDTLMISRTPEVTCVVVDVSHEDPEVKFNWYVDGVEVHNAKTKPREEQYNSTYRVVSVLTVLHQDWLNGKEYKCKVSNKALPAPIEKTISKAKGQPREPQVYTLPPSREEMTKNQVSLTCLVKGFYPSDIAVEWESNGQPENNYDTTPPVLDSDGSFFLYSDLTVDKSRWQQGNVFSCSVMHEALHNHYTQKSLSLSPGK
B5: aCD3-aHER2-mxb (bispecific antibody)
chain 1: EVQLLEQSGAELVRPGALVKLSCKASGFKIKDYFVNWVKQRPEQGLEWIGWIDPENDNSLYGPNFQDKASITADTSSNTGYLQLSGLTSEDTAVYYCALYYGSRGDAMDYWGQGTTVTVSSGGGGSGGGGSGGGGSELVMTQTPSSLSASLGDRVTISCRASQDISNYLNWYQQKPDGTVKLLIYYTSRLHSGVPSRFSGSGSGTDYSLTISNLEQEDIATYFCQQGNTLPLTFGAGTKLEIKAAAEPKSSDKTHTCPPCPAPEAAGGPSVFLFPPKPKDTLMISRTPEVTCVVVDVSHEDPEVKFNWYVDGVEVHNAKTKPREEQYNSTYRVVSVLTVLHQDWLNGKEYKCKVSNKALPAPIEKTISKAKGQPREPQVYTLPPSRKEMTKNQVSLTCLVKGFYPSDIAVEWESNGQPENNYKTTPPVLKSDGSFFLYSKLTVDKSRWQQGNVFSCSVMHEALHNHYTQKSLSLSPGKAAAHHHHHH
chain 2: not shown
B6: CD3ε(1-27)-MMP-2csV3-aCD3-aHER2-Xbody (bispecific antibody)
chain 1: not shown
chain 2: QDGNEEMGGITQTPYKVSISGTTVILTGGGGSGGGGSGGGGSPLGLAGEVQLVESGGGLVQPGGSLKLSCAASGFTFNSYAMNWVRQAPGKGLEWVARIRSKYNNYATYYADSVKGRFTISRDDSKNTAYLQMNNLKTEDTAVYYCVRHGNFGNSYVSWWAYWGQGTLVTVSSGGGGSGGGGSELVMTQTPSSLSASLGDRVTISCRASQDISNYLNWYQQKPDGTVKLLIYYTSRLHSGVPSRFSGSGSGTDYSLTISNLEQEDIATYFCQQGNTLPLTFGAGTKLEIKASTKGPSVFPLAPCSRSTSESTAALGCLVKDYFPEPVTVSWNSGALTSGVHTFPAVLQSSGLYSLSSVVTVPSSNFGTQTYTCNVDHKPSNTKVDKTVGGGGSAAAEPKSSDKTHTCPPCPAPEAAGGPSVFLFPPKPKDTLMISRTPEVTCVVVDVSHEDPEVKFNWYVDGVEVHNAKTKPREEQYNSTYRVVSVLTVLHQDWLNGKEYKCKVSNKALPAPIEKTISKAKGQPREPQVYTLPPSREEMTKNQVSLTCLVKGFYPSDIAVEWESNGQPENNYDTTPPVLDSDGSFFLYSDLTVDKSRWQQGNVFSCSVMHEALHNHYTQKSLSLSPGK
B7: CD3ε(1-27)-FURINcsV1-aCD3-aHER2-Xbody (bispecific antibody)
chain 1: not shown
chain 2: QDGNEEMGGITQTPYKVSISGTTVILTGGGGSGGGGSGGGGSRRRRREVQLVESGGGLVQPGGSLKLSCAASGFTFNSYAMNWVRQAPGKGLEWVARIRSKYNNYATYYADSVKGRFTISRDDSKNTAYLQMNNLKTEDTAVYYCVRHGNFGNSYVSWWAYWGQGTLVTVSSGGGGSGGGGSELVMTQTPSSLSASLGDRVTISCRASQDISNYLNWYQQKPDGTVKLLIYYTSRLHSGVPSRFSGSGSGTDYSLTISNLEQEDIATYFCQQGNTLPLTFGAGTKLEIKASTKGPSVFPLAPCSRSTSESTAALGCLVKDYFPEPVTVSWNSGALTSGVHTFPAVLQSSGLYSLSSVVTVPSSNFGTQTYTCNVDHKPSNTKVDKTVGGGGSAAAEPKSSDKTHTCPPCPAPEAAGGPSVFLFPPKPKDTLMISRTPEVTCVVVDVSHEDPEVKFNWYVDGVEVHNAKTKPREEQYNSTYRVVSVLTVLHQDWLNGKEYKCKVSNKALPAPIEKTISKAKGQPREPQVYTLPPSREEMTKNQVSLTCLVKGFYPSDIAVEWESNGQPENNYDTTPPVLDSDGSFFLYSDLTVDKSRWQQGNVFSCSVMHEALHNHYTQKSLSLSPGK
B8: CD3ε(1-27)-MMP-2csV2-aCD3-aHER2-Xbody (bispecific antibody)
chain 1: not shown
chain 2: QDGNEEMGGITQTPYKVSISGTTVILTGGGGSGGGGSGGGGSGGPLGMLSQSEVQLVESGGGLVQPGGSLKLSCAASGFTFNSYAMNWVRQAPGKGLEWVARIRSKYNNYATYYADSVKGRFTISRDDSKNTAYLQMNNLKTEDTAVYYCVRHGNFGNSYVSWWAYWGQGTLVTVSSGGGGSGGGGSELVMTQTPSSLSASLGDRVTISCRASQDISNYLNWYQQKPDGTVKLLIYYTSRLHSGVPSRFSGSGSGTDYSLTISNLEQEDIATYFCQQGNTLPLTFGAGTKLEIKASTKGPSVFPLAPCSRSTSESTAALGCLVKDYFPEPVTVSWNSGALTSGVHTFPAVLQSSGLYSLSSVVTVPSSNFGTQTYTCNVDHKPSNTKVDKTVGGGGSAAAEPKSSDKTHTCPPCPAPEAAGGPSVFLFPPKPKDTLMISRTPEVTCVVVDVSHEDPEVKFNWYVDGVEVHNAKTKPREEQYNSTYRVVSVLTVLHQDWLNGKEYKCKVSNKALPAPIEKTISKAKGQPREPQVYTLPPSREEMTKNQVSLTCLVKGFYPSDIAVEWESNGQPENNYDTTPPVLDSDGSFFLYSDLTVDKSRWQQGNVFSCSVMHEALHNHYTQKSLSLSPGK
B9: CD3ε(1-27)-FURINcsV2-aCD3-aHER2-Xbody (bispecific antibody)
chain 1: not shown
chain 2: B8 chain 2 with G44Q, P45S, L46S, G47R, M48H, L49R, S50R, Q51A, S52L

target: HER2 (human, UniProt P04626 23-1255); assay: cell-based or functional assay

Row | EC50 Cytolysis (ng/mL), +MMP2; TDCC of SKOV-3 cells with pan T cells [ng/mL] | EC50 Cytolysis (ng/mL), -MMP2; TDCC of SKOV-3 cells with pan T cells [ng/mL] | Binder
1 | 6.73 | 6.12 | B1
2 | 0.205 |  | B2
3 |  | 0.128 | B3
4 | 0.22 |  | B4
5 |  | 0.184 | B5
6 |  | 5.49 | B6
7 | 0.332 | 0.276 | B7
8 |  | 2.62 | B8
9 | 0.256 | 0.112 | B9

Source: patent US20170247476A1 (Amgen, published 2017)
